Key:
Cx43CT = biological target: T1, Cx43CT (Rattus norvegicus, UniProt P08050); test: Non-biased 12-mer phage display screening against Cx43CT; assay type: binding; details: 156 phage plaques sequenced after three rounds; pH 6.5
T1 construct: GST (N, cleaved yes); made in house; host or cells: E. coli BL-21
Method: A “library” of bacteriophage, displaying ˜[…] of 2.7×10^9 random 12-mer peptides (Ph.D.-12™ Phage display peptide library kit; New England BioLabs Inc.) was utilized. Wells in 24-well plates were coated with 15 μg of recombinant CT and blocked with 5 mg/ml BSA. After removing the unbound viruses by washing with Tris buffered saline containing 0.5% tween-20 (TBS-T), low affinity binders were eluted with a solution of TBS-containing Cx43CT at a concentration of 100 μg/ml. High affinity binders were recovered by overlaying the well with a culture of E. coli, to allow the tightly bound phage to infect the bacteria. This culture was amplified and the virus was precipitated with PEG. The amplified product was used for the subsequent round of panning. All steps were conducted at pH 6.5 unless otherwise indicated.
After three rounds of selection and amplification, the phage recovered from the last round of binding were grown on a lawn of E. coli for plaque purification. Each plaque, representing a single clone, was picked and amplified. The phage were isolated and analyzed by DNA sequencing.
The library was presented to Cx43CT. After three rounds of selection and amplification, DNA of 156 phage plaques was purified and sequenced. Of the estimated 2.7×10^9 different sequences in the library, 48 unique sequences were recovered. […]

[1] = system: junctional conductance (Gj) of cell pairs; test: Heptanol-induced uncoupling of cell pairs, junctional conductance time course; assay type: cell-based; details: compared with cell pairs without peptide
Method: Cells were treated with heptanol to reduce coupling and with NL.RXPE.

cardiac Cx43 = biological target: T2, cardiac Cx43 (Rattus norvegicus, UniProt P08050); test: GST pulldown of Cx43 from rat heart lysate, western blot; assay type: binding; details: GST fusion on glutathione beads, western blot for Cx43
T2 construct: from tissue; host or cells: rat heart lysate
Text: cDNA coding for […] (SEQ ID NO:11) (“NL.RXPE”) was cloned in-frame with the cDNA for glutathione S-transferase (“GST”). The resulting fusion protein, GST-NL.RXPE was produced in bacteria, and purified by conventional methods. GST-NL.RXPE was bound to glutathione beads and exposed to a rat heart lysate. After washing of the supernatant, the pellets were heated to separate the proteins from the beads. Two additional proteins were produced in parallel, and used as control: GST alone (not fused to any peptide) and GST fused to RXPE. After exposure to heart lysate, the resulting complexes that were “fished out” by the bait proteins were run on SDS-PAGE, transferred to a nitrocellulose membrane, and probed with an antibody for Cx43. […] It is expected that other peptides of formula A-An interact with Cx43, and may be used in the methods of the present invention.

T2 sequence (P08050 whole entry, the tested form may be a part): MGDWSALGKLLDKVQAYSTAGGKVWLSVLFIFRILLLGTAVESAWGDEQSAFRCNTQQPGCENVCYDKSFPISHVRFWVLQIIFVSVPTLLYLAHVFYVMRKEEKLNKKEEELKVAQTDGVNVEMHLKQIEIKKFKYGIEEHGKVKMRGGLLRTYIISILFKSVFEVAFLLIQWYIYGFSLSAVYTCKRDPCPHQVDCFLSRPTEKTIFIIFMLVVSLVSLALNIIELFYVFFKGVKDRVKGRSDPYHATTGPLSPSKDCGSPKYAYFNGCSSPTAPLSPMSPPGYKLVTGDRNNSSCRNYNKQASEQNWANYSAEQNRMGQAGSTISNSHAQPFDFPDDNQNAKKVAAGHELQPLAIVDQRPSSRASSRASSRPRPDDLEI
T1 sequence (P08050 255-382): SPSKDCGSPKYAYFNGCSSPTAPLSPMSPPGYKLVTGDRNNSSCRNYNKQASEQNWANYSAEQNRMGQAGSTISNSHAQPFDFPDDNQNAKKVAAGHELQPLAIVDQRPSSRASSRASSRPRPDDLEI

Sequence	Number of phage plaques from which the sequence was recovered (Cx43CT) [plaques]	Rate of heptanol-induced uncoupling (normalized Gj) [1]	Recovery of Cx43 with GST-fused peptide as bait (cardiac Cx43)
PRPTMGNLPDVL (Peptide sequence from phage library)	45	–	–
SDDLRSPQLHNHMVRRKPRNPR (RXP-containing peptide) [NL.RXPE]	–	uncoupled at a much slower rate	Cx43 was also recovered
